# Experimental data: patent US20210189359A1 (UNIVERSITY OF KENTUCKY RESEARCH FOUNDATION, published 2021)
# Numbering of substitutions follows the chain as printed. Numbers in names are those of the source.
# B1: CocH-LAF6 (Fc fusion)
# chain: EDDIIIATKNGKVRGMNLTVFGGTVTAFLGIPYAQPPLGRLRFKKPQSLTKWSDIWNATKYANSCCQNIDQSFPGFHGSEMWNPNTDLSEDCLYLNVWIPAPKPKNATVLIWIYGGGFQTGTSSLHVYDGKFLARVERVIVVSMNYRVGALGFLALPGNPEAPGNMGLFDQQLALQWVQKNIAAFGGNPKSVTLFGESSGAASVSLHLLSPGSHSLFTRAILQSGSANAPWAVTSLYEARNRTLNLAKLTGCSRENETEIIKCLRNKDPQEILLNEAFVVPYGTPLGVNFGPTVDGDFLTDMPDILLELGQFKKTQILVGVNKDEGTWFLVGGAPGFSKDNNSIITRKEFQEGLKIFFPGVSEFGKESILFHYTDWVDDQRPENYREALGDVVGDYNFICPALEFTKKFSEWGNNAFFYYFEHRSSKLPWPEWMGVMHGYEIEFVFGLPLERRDNYTKAEEILSRSIVKRWANFAKYGNPNETQNNSTSWPVFKSTEQKYLTLNTESTRIMTKLRAQQCRFWTSFFPKVVEPKSCDKTHTCPPCPAPELLGGPSVFLFPPKPKDTLYITREPEVTCVVVDVSHEDPEVKFNWYVDGVEVHNAKTKPREEQYNSTYRVVSVLTVLHQDWLNGKEYKCKVSNKALPAPIEKTISKAKGQPREPQVYTLPPSREEMTKNQVSLTCLVKGFYPSDIAVEWESNGQPENNYKTTPPVLDSDGSFFLYSKLTVDKSRWQQGNVFSCSVMHEALHNHYTQKSLSLSPGK
# notes: Direct fusion without a linker; also called CocH3-LAF6; CocH3(529)-Fc(M6)
# B2: CocH-LAF7 (Fc fusion)
# chain: B1 chain with P285A
# notes: Direct fusion without a linker; also called CocHl-LAF7; CocH1-LAF7
# B3: CocH-LAF8 (Fc fusion)
# chain: B1 chain with P285Q
# notes: Direct fusion without a linker; also called CocH2-LAF8; A199S/F227A/P285Q/S287G/A328W/Y332G/A530V/M567Y/S569T/T571E/D671E/L673M mutant of BChE(529)-Fc
# Target: T1, human FcRn (human, UniProt P55899 24-297; P61769 21-119, limits assumed)
# T1 construct: the construct, its source and whether b2m was present are not described; also called neonatal Fc receptor
# Test: in vitro binding to human FcRn at pH 6; method not described
row,Kd,Binder
1,43 nM,B1
2,43 nM,B2
3,43 nM,B3
